Test results taken from the RNAGym collection of RNA variant scans (doi:10.1073/pnas.2313332121).
This sample holds only a part of the variants without activity.

B1: TPR 5TU (parent)
chain: GGAUCUUCUCGAUCUAACAAAAAAGACAAAUCUGCCACAAAGCUUGAGAGCAUCUUCGGAUGCAGAGGCGGCAGCCUUCGGUGGCGCGAUAGCGCCAACGUUCUCAACUAUGACACGCAAAACGCGUGCUCCGUUGAAUGGAGUUUAUCAUG

Variants of: B1
Experiment: polymerase ribozyme fitness, log enrichment relative to wild type (log ratio); higher = more active; in vitro selection for triplet polymerase activity
Outline: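 Each subunit of a heterodimeric triplet polymerase ribozyme was mutagenized into a library by PCR, transcribed, and subjected to one round of in vitro selection, run in triplicate. Libraries were annealed with a biotinylated primer, the partner subunit and triplets, incubated frozen at −7 °C, and extended constructs were gel-excised, captured on streptavidin beads and recovered by RT-PCR. Input and output libraries were sequenced on Illumina, keeping genotypes with ≥10 input reads and ≥1 read per output. Fitness is log base 2 of genotype enrichment divided by wild-type enrichment, from inverse-variance-weighted replicate averages.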

First: GGAUCUUCUCGAUCUAACAAAAAAGACAAAUCUGCCACAAAGCUUGAGAGCAUCUUCGGAUGCACAGGCGGCACCCUUCGGUGGCGCAAUAGGGCCAACGUUCUCAACUAUGACACGCAAAACGCGUGCUCCGUUGAAUGGAGUUAAUCAUG
Second: GGAUCUUCUCGAUCUAACAAAAAAGACAAAUCUGCCACAAAGCUUGAGAGCAUCUUCGGAUGCAGGGGCGGCAGCCUUCGGUGGCGCGAUAGCGCUAACGUUCUCAACUAUGACACGCAAAACGCGUGCUCCGUUGAAUGGAGUUUAUCAUG
The “polymerase ribozyme fitness (log ratio)” value of the first is lower: ≤ -4.2 for the first, -3.66 for the second.

First: GGAUCUUCUCGAUCUAACAAAAAAGACAAAUCUGCCACAAAGCUUGAGAGCAUCUUCGGAUGCAAAGGCGGCAGCAUUCGGUGGCGCGAUAGCGCCAACGUUCUCAACUAUGACACGCAAAUCGCGUGCUCCGUUGAAUGGAGUUUAUCAUG
Second: GGAUCUUCUCGAUCUAACAAAAAAGACAAAUCUGCCACAAAGCUUGAGAGCAUCUUCGGAUGCAGCGGCGGCAGCCUUCGGUGGCGCGAUAACGCCAACGUUCUCAACUAUGACACGCAAAACGCGUGCUCCGUUGAAUGGAGUUUAUCAUG
The “polymerase ribozyme fitness (log ratio)” value of the first is higher: -4.06 for the first, ≤ -4.2 for the second.

Going from GGAUCUUCUCGAUCUAACAAAAAAGACAAAUCUGCCACAAAGCUUGAGAGCAUCUUCGGAUGCAUAGGCGGCAGCCUUCGGAGGCGCGAUAGUGGCAACGUUCUCAACUAUGACACGCAAAACGCGUGCUCCGUUGAAUGGAGUUUAUCAUG to GGAUCUUCUCGAUCUAACAAAAAAGACAAAUCUGCCACAAAGCUUGAGAGCAUCUUCGGAUGCGGAGGCGGCAGCCUUCGGUGGCGCGAUCGCGCCAACGUUCUCAACUAUGACGCGCAAAACGCGUGCUCCGUUGAAUGGAGUCUAUCAUG, the “polymerase ribozyme fitness (log ratio)” value rises from ≤ -4.2 to -3.96.

GGAUCUUCUCGAUCUAACAAAAAAGACAAAUCUGCCACAAAGCUUGAGAGCAUCUUCGGAUGCAGCGGCGGCAGCCUUCGGUGGAGCGAUAGCGCCAACGUUCUCAACUAUGACACGCAAAACGCGUGCUCCGUUGAAUGGAGUUUAUCAUG and GGAUCUUCUCGAUCUAACAAAAAAGACAAAUCUGCCACAAAGCUUGAGAGCAUCUUCGGAUGCAGGGGCGGCAGCCUUCGGUGGUUCGAUAGCGCCAACGUUCUCAACUAUGACACGCAAAACGCGUGCUCCGUUGAAUGGAGUUUAUCAUG cannot be ordered by “polymerase ribozyme fitness (log ratio)” value: ≤ -4.2 for the first, ≤ -4.2 for the second.

Compared with GGAUCUUCUCGAUCUAACAAAAAAGACAAAUCUGCCACAAAGCUUGAGAGCAUCUUCGGAUGCAAAGGCGGCAGCCUUCGGUGGCGCGAUAGCGCCAACGUUCUCAACUAUGAAACGCAAAACGCGUGCUCCGUUGAAUGGAGUUUAUCAUG, GGAUCUUCUCGAUCUAACAAAAAAGACAAAUCUGCCACAAAGCUUGAGAGCAUCUUCGGAUGCAGGGGUGGCAGCCUUCGGUGGCGCGAUAGCGCCAACGUUCUCAACUAUGACACGCAAAACGCGUGCUCCGUUGAAUGGAGUUUAUCAUG is lower in “polymerase ribozyme fitness (log ratio)” value: -3.39 for the first, ≤ -4.2 for the second.

GGAUCUUCUCGAUCUAACAAAAAAGACAAAUCUGCCACAAAGCUUGAGAGCAUCUUCGGAUGCAGGGGCGGCAGCCUUCGGUCGCGCGAUAGCGCCAACGUUCUCAACUAGGACACGCAAAACGCGUGCUCCGUUGAAUGGAGUUUAUCAUG and GGAUCUUCUCGAUCUAACAAAAAAGACAAAUCUGCCACAAAGCUUGAGAGCAUCUUCGGAUGCAAAGGCGGCACCCUUCGGUGGCGCGAUAGCGCCAACGUUCUCAACUAUGACACGCAAAACGCGUGCUCCGUUGAAUUGAGUUUGUCAUG cannot be ordered by “polymerase ribozyme fitness (log ratio)” value: ≤ -4.2 for the first, ≤ -4.2 for the second.

First: GGAUCUUCUCGAUCUAACAAAAAAGACAAAUCUGCCACAAAGCUUGAGAGCAUCUUCGGAUGCACAGGCGGCAGCCUUCGUUGGCGCGAUAGCCCCAACGUUCUGAACUAUGACGCGCAAAACGCGUGUUCCGUUGACUGGAGUUUAUCAUG
Second: GGAUCUUCUCGAUCUAACAAAAAAGACAAAUCUGCCACAAAGCUUGAGAGCAUCUUCGGAUGCAGCGGCGGCAGCUUUCGGUGGCGCGAUAGCGCCAACGUUCUCAACUAUGACACGCAAAACGCGUGCUCCGUUGAAUGGAGUUUAUCAUG
The “polymerase ribozyme fitness (log ratio)” value of the first is lower: ≤ -4.2 for the first, -3.47 for the second.

Compared with GGAUCUUCUCGAUCUAACAAAAAAGACAAAUCUGCCACAAAGCUUGAGAGCAUCUUCGGAUGCACAGGCGGCAGCCUUCGGUGGCGGGAUAGCGCCAACGUACUCAACUAUGACACGCAAAACGCGUGCUCCGUUGAAUGGAGUUUAUCAUG, GGAUCUUCUCGAUCUAACAAAAAAGACAAAUCUGCCACAAAGCUUGAGAGCAUCUUCGGAUGCAAAGGCGGCAGCCUUCGGUGGCGCGAUAGCGCCAACGUUCUCAACUAUGACACGCAAAACGCGUGCUCCGUUCAAUGGAGUUUCUCAUG is higher in “polymerase ribozyme fitness (log ratio)” value: ≤ -4.2 for the first, -4.13 for the second.

First: GGAUCUUCUCGAUCUAACAAAAAAGACAAAUCUGCCACAAAGCUUGAGAGCAUCUUCGGAUGCAGGGGCGGCAGCCUUCGGUGGCGCGAUAGCGCUAACGUUCUCAACUAUGACACGCAAAACGCGUGCUCCGUUGAUUGGAGUUUAUCAAG
Second: GGAUCUUCUCGAUCUAACAAAAAAGACAAAUCUGCCACAAAGCUUGAGAGCAUCUUCGGAUGCAGGGGCGGCAGCCUUCGGUGGCGUGAUAGCGCCAACGUUCUCAACUAUGACACGCAAAACGCGUGCUCCGUUGAAUGGAGUUUAUCAUG
The “polymerase ribozyme fitness (log ratio)” value of the first is lower: ≤ -4.2 for the first, -3.68 for the second.

With GGAUCUUCUCGAUCUAACAAAAAAGACAAAUCUGCCACAAAGCUUGAGAGCAUCUUCGGAUGCAUAGGCGGCAGCCUACGGUGGCGCGAUAGCGCCAACGUUCUCAACUAUGACACGCAAAACGCGUGCUCCGUUGAAUGGAGUUUAUCAUG the “polymerase ribozyme fitness (log ratio)” value was -1.52.
